Test results published in patent US20020099179A1.

Molecular target: human CD4 antigen (human) (UniProt P01730)
Assay: competition with F1-OKT4A tracer on HPB-ALL cells, flow cytometry

Row | Log conc. competitor (pM) at 50% inhibition [log pM] | Substance
1 | 2.4 | murine OKT4A (antibody)
2 | 2.9 | chimeric OKT4A (chimeric light chain and chimeric heavy chain) (antibody)
